How the values were obtained:
[1] = target: T1, ErbB3 extracellular domain, His-tagged (human, UniProt P21860 20-643); assay: SPR (BIAcore T100, 25 C), 2C2 Fab immobilised on CM5 chip, ErbB3 ECD in flow
T1 construct: Expressed in baculovirus-infected Sf9 cells and de-glycosylated for crystallography; also called ErbB3-ECD; ErbB3 ECD; not shown: C-terminal hexa-histidine tag, told in words only

[2] = target: T2, ErbB3 domain III, His-tagged (human, UniProt P21860 329-521); assay: SPR (BIAcore T100, 25 C), 2C2 Fab immobilised on CM5 chip, ErbB3 domain III in flow
T2 construct: also called purified domain III; D3; not shown: His tag

[3] = target: T3, cell-surface expressed ErbB3 (Homo sapiens (Human), UniProt P21860 20-1342); assay: flow cytometry, Alexa-647-labelled 2C2 titrated on BaF3 cells co-expressing ErbB2 and ErbB3, on ice; single-site binding isotherm
T3 construct: also called HER3

[4] = target: T4, ErbB3 domain I, His-tagged (human, UniProt P21860 20-201); assay: ELISA, His-tagged ErbB3 domain I coated on the plate, 2C2 titrated, HRP anti-human secondary antibody, chemiluminescence
T4 construct: also called D1; not shown: His tag

[5] = target: T5, ErbB3 domain II, His-tagged (human, UniProt P21860 202-328); assay: ELISA, His-tagged ErbB3 domain II coated on the plate, 2C2 titrated, HRP anti-human secondary antibody, chemiluminescence
T5 construct: also called D2; not shown: His tag

[6] = target: T6, ErbB3 domain IV, His-tagged (human, UniProt P21860 522-643); assay: ELISA, His-tagged ErbB3 domain IV coated on the plate, 2C2 titrated, HRP anti-human secondary antibody, chemiluminescence
T6 construct: also called D4; not shown: His tag

[7] = target: T2, ErbB3 domain III, His-tagged; assay: ELISA, His-tagged ErbB3 domain III coated on the plate, 2C2 titrated, HRP anti-human secondary antibody, chemiluminescence
[8] = target: T1, ErbB3 extracellular domain, His-tagged; assay: SPR (BIAcore T100), Fab immobilised on a CM5 chip, ErbB3-ECD passed over in rising concentrations, long dissociation, 1:1 binding model

B1: 2C2 Fab (Fab, V domains shown)
VH: EVQLLESGGGLVQPGGSLRLSCAASGFTFSYYYMQWVRQAPGKGLEWVSYIGSSGGVTNYADSVKGRFTISRDNSKNTLYLQMNSLRAEDTAVYYCARVGLGDAFDIWGQGTMVTVSS
VL: QSVLTQPPSASGTPGQRVTISCSGSLSNIGLNYVSWYQQLPGTAPKLLISRNNQRPSGVPDRFSGSKSGTSASLAISGLRSEDEADYYCAAWDDSPPGEAFGGGTKLTVL
notes: Fab expressed in E. coli (pET26b, pelB signal peptide); also called Fab fragment of 2C2; Fab 2C2
[1]
  Kd: 166 pM
[2]
  Kd: 377 pM

B2: 2C2 antibody (whole antibody used in the examples was 2C2-YTE) (antibody, V domains shown)
VH: EVQLLESGGGLVQPGGSLRLSCAASGFTFSYYYMQWVRQAPGKGLEWVSYIGSSGGVTNYADSVKGRFTISRDNSKNTLYLQMNSLRAEDTAVYYCARVGLGDAFDIWGQGTMVTVSS
VL: QSVLTQPPSASGTPGQRVTISCSGSLSNIGLNYVSWYQQLPGTAPKLLISRNNQRPSGVPDRFSGSKSGTSASLAISGLRSEDEADYYCAAWDDSPPGEAFGGGTKLTVL
notes: Whole anti-ErbB3 antibody of WO 2013/078191
[3]
  Kd: 80 pM
[4]
  binding result: no binding (tested: about 60 nM (log nM about 1.8))
[5]
  binding result: no binding (tested: about 60 nM (log nM about 1.8))
[6]
  binding result: no binding (tested: about 60 nM (log nM about 1.8))
[7]
  EC50 (read off the curve): ~500 pM

B3: S23R Fab (Fab, V domains shown)
VH: EVQLLESGGGLVQPGGSLRLSCAASGFTFSYYYMQWVRQAPGKGLEWVSYIGSSGGVTNYADSVKGRFTISRDNSKNTLYLQMNSLRAEDTAVYYCARVGLGDAFDIWGQGTMVTVSS
VL: QSVLTQPPSASGTPGQRVTISCRGSLSNIGLNYVSWYQQLPGTAPKLLISRNNQRPSGVPDRFSGSKSGTSASLAISGLRSEDEADYYCAAWDDSPPGEAFGGGTKLTVL
notes: 2C2 Fab variant with serine to arginine at residue 23 of the light chain (CDR1); also called S23R Fab antibody
[8]
  koff: 8.3e-05 s⁻¹

B4: S25H Fab (Fab, V domains shown)
VH: EVQLLESGGGLVQPGGSLRLSCAASGFTFSYYYMQWVRQAPGKGLEWVSYIGSSGGVTNYADSVKGRFTISRDNSKNTLYLQMNSLRAEDTAVYYCARVGLGDAFDIWGQGTMVTVSS
VL: QSVLTQPPSASGTPGQRVTISCSGHLSNIGLNYVSWYQQLPGTAPKLLISRNNQRPSGVPDRFSGSKSGTSASLAISGLRSEDEADYYCAAWDDSPPGEAFGGGTKLTVL
notes: 2C2 Fab variant with serine to histidine at residue 25 of the light chain (CDR1), made by QuikChange mutagenesis; also called S25H Fab antibody
[8]
  koff: 5.5e-05 s⁻¹

Source: US20170240648A1 (KOLLTAN PHARMACEUTICALS, published 2017)
